In this experiment the target is T1, c-kit, endogenous in FDC-P1 cells (mouse, UniProt P05532 25-979).
T1 construct: whole, on cells
Kind of experiment: co-immunoprecipitation with anti-CXCR4 from FDC-P1 whole cell lysates.

T1 sequence (P05532 25-979): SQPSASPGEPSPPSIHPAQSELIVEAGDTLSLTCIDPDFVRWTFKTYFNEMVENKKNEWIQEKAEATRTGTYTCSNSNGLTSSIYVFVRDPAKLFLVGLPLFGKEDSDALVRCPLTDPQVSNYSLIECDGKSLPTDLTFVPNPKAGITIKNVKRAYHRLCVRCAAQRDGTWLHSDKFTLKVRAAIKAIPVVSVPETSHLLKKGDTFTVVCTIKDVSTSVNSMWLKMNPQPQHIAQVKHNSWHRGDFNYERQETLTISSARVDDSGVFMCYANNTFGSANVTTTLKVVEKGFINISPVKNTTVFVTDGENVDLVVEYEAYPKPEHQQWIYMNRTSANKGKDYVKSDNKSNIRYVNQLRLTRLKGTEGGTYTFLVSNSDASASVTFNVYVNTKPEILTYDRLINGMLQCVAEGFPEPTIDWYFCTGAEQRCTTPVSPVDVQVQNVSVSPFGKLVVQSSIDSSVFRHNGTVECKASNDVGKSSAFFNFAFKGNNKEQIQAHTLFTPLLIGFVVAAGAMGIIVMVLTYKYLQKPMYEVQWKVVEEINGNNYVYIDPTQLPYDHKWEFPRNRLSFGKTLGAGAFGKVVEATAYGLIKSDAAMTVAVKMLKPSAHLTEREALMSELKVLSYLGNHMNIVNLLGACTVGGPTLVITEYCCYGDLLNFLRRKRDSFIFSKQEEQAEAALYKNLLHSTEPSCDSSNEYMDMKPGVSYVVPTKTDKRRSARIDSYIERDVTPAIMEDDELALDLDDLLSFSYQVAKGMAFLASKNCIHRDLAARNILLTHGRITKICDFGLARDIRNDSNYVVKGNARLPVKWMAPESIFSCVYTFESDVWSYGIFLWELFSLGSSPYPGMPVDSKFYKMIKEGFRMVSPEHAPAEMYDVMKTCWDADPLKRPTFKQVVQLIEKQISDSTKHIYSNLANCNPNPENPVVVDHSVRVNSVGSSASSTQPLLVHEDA

B1: CXCR4, endogenous in FDC-P1 cells (receptor, mouse, UniProt P70658 1-359, looked up)
chain: MEPISVSIYTSDNYSEEVGSGDYDSNKEPCFRDENVHFNRIFLPTIYFIIFLTGIVGNGLVILVMGYQKKLRSMTDKYRLHLSVADLLFVITLPFWAVDAMADWYFGKFLCKAVHIIYTVNLYSSVLILAFISLDRYLAIVHATNSQRPRKLLAEKAVYVGVWIPALLLTIPDFIFADVSQGDISQGDDRYICDRLYPDSLWMVVFQFQHIMVGLILPGIVILSCYCIIISKLSHSKGHQKRKALKTTVILILAFFACWLPYYVGISIDSFILLGVIKQGCDFESIVHKWISITEALAFFHCCLNPILYAFLGAKFKSSAQHALNSMSRGSSLKILSKGKRGGHSSVSTESESSSFHSS
notes: whole, on cells; Immunoprecipitated with anti-CXCR4 from whole cell lysates in the co-immunoprecipitation
Turning to B1, the binding result was “no binding”.
